Experimental findings from patent publication US20150203577A1 (Chugai, published 2015) are described below.

Assay [1] concerns the target T1, mouse FcγRII extracellular domain, C-terminally His-tagged (mouse, UniProt P08101 30-210).
T1 construct: the whole entry is named; also called mFcγRII; mFcgRII
T1 sequence: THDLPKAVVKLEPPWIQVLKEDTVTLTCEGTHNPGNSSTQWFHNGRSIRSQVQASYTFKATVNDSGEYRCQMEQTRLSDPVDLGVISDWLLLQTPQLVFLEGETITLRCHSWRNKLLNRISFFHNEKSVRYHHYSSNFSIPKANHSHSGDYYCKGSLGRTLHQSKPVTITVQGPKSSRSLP
The experiment in a line: SPR Biacore T200, KD ratio, template MB515. The source says:
(§1) The antibody H chain variable region used was the variable region H237 (SEQ ID NO: 1) of the H chain VH3-IgG1 of the anti-IL-6 receptor antibody Fv4-IgG1 described in WO2009/125825. The antibody L chain commonly used was the L chain MRAL-k0 (SEQ ID NO: 2) of the anti-IL-6 receptor antibody tocilizumab. H237-MB476/MRAL-k0 and H237-MB515/MRAL-k0 were used as templates to introduce new alterations. These variants were expressed and purified by the method of Reference Example 1 and evaluated for their binding to mFcγRII and mFcγRIII by the method of Reference Example 2 using Biacore T200.
(§2) Each altered antibody was analyzed for its interaction with each Fcγ receptor prepared above using Biacore T100 (GE Healthcare Japan Corp.), Biacore T200 (GE Healthcare Japan Corp.), Biacore A100, or Biacore 4000. The running buffer used was HBS-EP+ (GE Healthcare Japan Corp.). The assay temperature was set to 25° C. The sensor chips used were chips prepared by immobilizing Protein L (ACTIGEN or BioVision) onto Series S Sensor Chip CM5 (GE Healthcare Japan Corp.) or Series S Sensor Chip CM4 (GE Healthcare Japan Corp.) by the amine coupling method.
(§3) In order to calculate the KD value of each altered antibody for FcγR, kinetic analysis was conducted according to the following method: first, the antibody of interest was captured onto any of these chips and allowed to interact with mFcγR diluted with a running buffer. For the obtained sensorgram, the assay results were globally fit into the 1:1 Langmuir binding model using Biacore Evaluation Software to calculate an association rate constant ka (L/mol/s) and a dissociation rate constant kd (1/s). From these values, the dissociation constant KD (mol/L) was calculated.
A general note: In SPR one partner is held on a chip, and binding of the other changes the refractive index at the surface.

For assay [2], the target named is T2, mouse FcγRIII extracellular domain, C-terminally His-tagged (mouse, UniProt P08508 31-215).
T2 construct: the whole entry is named; also called mFcγRIII; mFcgRIII
T2 chain: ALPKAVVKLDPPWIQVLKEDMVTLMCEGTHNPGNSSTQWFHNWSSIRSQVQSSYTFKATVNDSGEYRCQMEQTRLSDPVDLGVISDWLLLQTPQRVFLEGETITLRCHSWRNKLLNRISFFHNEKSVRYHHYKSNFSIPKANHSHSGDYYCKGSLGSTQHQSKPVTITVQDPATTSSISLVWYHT
The experiment in a line: SPR Biacore T200, KD ratio, template MB515.
From the text: as §1, §2, §3

The target of assay [3] is T1, mouse FcγRII extracellular domain, …. The experiment in a line: SPR Biacore T200, KD ratio.
From the text: as §1, §2, §3

The target in assay [4] is T2, mouse FcγRIII extracellular domain, …. The experiment in a line: SPR Biacore T200, KD ratio.
From the text: as §1, §2, §3

B1: H237-MB515/MRAL-k0 (antibody, mouse IgG1, kappa)
heavy: QVQLQESGPGLVKPSETLSLTCAVSGHSISHDHAWSWVRQPPGEGLEWIGFISYSGITNYNPSLQGRVTISRDNSKNTLYLQMNSLRAEDTAVYYCARSLARTTAMDYWGEGTLVTVSSAKTTPPSVYPLAPGSAAQTNSMVTLGCLVKGYFPEPVTVTWNSGSLSSGVHTFPAVLQSDLYTLSSSVTVPSSTWPSETVTCNVAHPASSTKVDKKIVPRDCGCKPCICEPNEVEMVFIFPPKPKDVLTITLTPKVTCVVVDISKDDPEVQFSWFVDDVEVHTAQTQPREEQFNSTFRSVSELPIMHQDWLNGKEFKCRVNSAAFPAPIEKTISKTKGRPKAPQVYTIPPPKEQMAKDKVSLTCMITDFFPEDITVEWQWNGQPAENYKNTQPIMDTDGSYFVYSKLNVQKSNWEAGNTFTCSVLHEGLHNHHTEKSLSHSPGK
light: not shown
notes: Template; copies: 2 + 2
Consider B1, for which, in assay [1], the “relative mFcγRII-binding activity (template = 1)” value is 1 fold. The “relative mFcγRIII-binding activity (template = 1)” value in assay [2] amounted to 1 fold. Further, in assay [3], the “relative mFcγRII-binding activity (mIgG1 = 1)” value was 137 fold. Besides, the “relative mFcγRIII-binding activity (mIgG1 = 1)” value in assay [4] was found to be 1.3 fold.

B2: H237-MB542/MRAL-k0 (antibody, mouse IgG1, kappa)
heavy: QVQLQESGPGLVKPSETLSLTCAVSGHSISHDHAWSWVRQPPGEGLEWIGFISYSGITNYNPSLQGRVTISRDNSKNTLYLQMNSLRAEDTAVYYCARSLARTTAMDYWGEGTLVTVSSAKTTPPSVYPLAPGSAAQTNSMVTLGCLVKGYFPEPVTVTWNSGSLSSGVHTFPAVLQSDLYTLSSSVTVPSSTWPSETVTCNVAHPASSTKVDKKIVPRDCGCKPCICEPNEVEMVFIFPPKPKDVLTITLTPKVTCVVVDISKDDPEVQFSWFVDDVEVHTAQTQPREEQFNSTFRSVSELPIMHQDWLNGKEFKCRVDSDAFPAPIEKTISKTKGRPKAPQVYTIPPPKEQMAKDKVSLTCMITDFFPEDITVEWQWNGQPAENYKNTQPIMDTDGSYFVYSKLNVQKSNWEAGNTFTCSVLHEGLHNHHTEKSLSHSPGK
light: not shown
notes: copies: 2 + 2
B2: the “relative mFcγRII-binding activity (template = 1)” value in assay [1] was 2.8 fold. Moreover, the “relative mFcγRIII-binding activity (template = 1)” value in assay [2] was determined as 2.57 fold. In addition, in assay [3], the “relative mFcγRII-binding activity (H237-mIgG1/MRAL-k0 = 1)” value was at least 350 fold, the “relative mFcγRII-binding activity (mIgG1 = 1)” value was found to be 384 fold and the “relative mFcγRII-binding activity (template H237-MB515/MRAL-k0 = 1)” value is at least 1.4 fold. The “relative mFcγRIII-binding activity (mIgG1 = 1)” value in assay [4] is 3.4 fold.

B3: H237-MB541/MRAL-k0 (antibody, mouse IgG1, kappa)
heavy: QVQLQESGPGLVKPSETLSLTCAVSGHSISHDHAWSWVRQPPGEGLEWIGFISYSGITNYNPSLQGRVTISRDNSKNTLYLQMNSLRAEDTAVYYCARSLARTTAMDYWGEGTLVTVSSAKTTPPSVYPLAPGSAAQTNSMVTLGCLVKGYFPEPVTVTWNSGSLSSGVHTFPAVLQSDLYTLSSSVTVPSSTWPSETVTCNVAHPASSTKVDKKIVPRDCGCKPCICEPNEVEMVFIFPPKPKDVLTITLTPKVTCVVVDISKDDPEVQFSWFVDDVEVHTAQTQPREEQFNLTFRSVSELPIMHQDWLNGKEFKCRVNSAAFPAPIERTISKTKGRPKAPQVYTIPPPKEQMAKDKVSLTCMITDFFPEDITVEWQWNGQPAENYKNTQPIMDTDGSYFVYSKLNVQKSNWEAGNTFTCSVLHEGLHNHHTEKSLSHSPGK
light: not shown
notes: copies: 2 + 2
As for B3, the “relative mFcγRII-binding activity (template = 1)” value in assay [1] stood at 0.75 fold. Besides, in assay [2], the “relative mFcγRIII-binding activity (template = 1)” value came out at 2.48 fold. Also, the “relative mFcγRII-binding activity (mIgG1 = 1)” value in assay [3] was determined as 103 fold. Besides, the “relative mFcγRIII-binding activity (mIgG1 = 1)” value in assay [4] came out at 3.3 fold.

B4: H237-MB540/MRAL-k0 (antibody, mouse IgG1, kappa)
heavy: QVQLQESGPGLVKPSETLSLTCAVSGHSISHDHAWSWVRQPPGEGLEWIGFISYSGITNYNPSLQGRVTISRDNSKNTLYLQMNSLRAEDTAVYYCARSLARTTAMDYWGEGTLVTVSSAKTTPPSVYPLAPGSAAQTNSMVTLGCLVKGYFPEPVTVTWNSGSLSSGVHTFPAVLQSDLYTLSSSVTVPSSTWPSETVTCNVAHPASSTKVDKKIVPRDCGCKPCICEPNEVEMVFIFPPKPKDVLTITLTPKVTCVVVDISKDDPEVQFSWFVDDVEVHTAQTQPREEQFNLTFRSVSELPIMHQDWLNGKEFKCRVNSDAFPAPIEKTISKTKGRPKAPQVYTIPPPKEQMAKDKVSLTCMITDFFPEDITVEWQWNGQPAENYKNTQPIMDTDGSYFVYSKLNVQKSNWEAGNTFTCSVLHEGLHNHHTEKSLSHSPGK
light: not shown
notes: copies: 2 + 2
With B4, the “relative mFcγRII-binding activity (template = 1)” value in assay [1] came to 1.09 fold. The “relative mFcγRIII-binding activity (template = 1)” value in assay [2] is 2.15 fold. In addition, the “relative mFcγRII-binding activity (mIgG1 = 1)” value in assay [3] turned out to be 149 fold. In addition, the “relative mFcγRIII-binding activity (mIgG1 = 1)” value in assay [4] turned out to be 2.8 fold.

B5: H237-MB538/MRAL-k0 (antibody, mouse IgG1, kappa)
heavy: QVQLQESGPGLVKPSETLSLTCAVSGHSISHDHAWSWVRQPPGEGLEWIGFISYSGITNYNPSLQGRVTISRDNSKNTLYLQMNSLRAEDTAVYYCARSLARTTAMDYWGEGTLVTVSSAKTTPPSVYPLAPGSAAQTNSMVTLGCLVKGYFPEPVTVTWNSGSLSSGVHTFPAVLQSDLYTLSSSVTVPSSTWPSETVTCNVAHPASSTKVDKKIVPRDCGCKPCICEPNEVEMVFIFPPKPKDVLTITLTPKVTCVVVDISKDDPEVQFSWFVDDVEVHTAQTQPREEQFNLTFRSVSELPIMHQDWLNGKEFKCRVNSAAFPAPIEKTISKTKGRPKAPQVYTIPPPKEQMAKDKVSLTCMITDFFPEDITVEWQWNGQPAENYKNTQPIMDTDGSYFVYSKLNVQKSNWEAGNTFTCSVLHEGLHNHHTEKSLSHSPGK
light: not shown
notes: copies: 2 + 2
For B5, the “relative mFcγRII-binding activity (template = 1)” value in assay [1] amounted to 0.63 fold. The “relative mFcγRIII-binding activity (template = 1)” value in assay [2] was 1.3 fold. The “relative mFcγRII-binding activity (mIgG1 = 1)” value in assay [3] came out at 86.2 fold. In addition, in assay [4], the “relative mFcγRIII-binding activity (mIgG1 = 1)” value worked out at 1.7 fold.

B6: H237-MB543/MRAL-k0 (antibody, mouse IgG1, kappa)
heavy: QVQLQESGPGLVKPSETLSLTCAVSGHSISHDHAWSWVRQPPGEGLEWIGFISYSGITNYNPSLQGRVTISRDNSKNTLYLQMNSLRAEDTAVYYCARSLARTTAMDYWGEGTLVTVSSAKTTPPSVYPLAPGSAAQTNSMVTLGCLVKGYFPEPVTVTWNSGSLSSGVHTFPAVLQSDLYTLSSSVTVPSSTWPSETVTCNVAHPASSTKVDKKIVPRDCGCKPCICEPNEVEMVFIFPPKPKDVLTITLTPKVTCVVVDISKDDPEVQFSWFVDDVEVHTAQTQPREEQFNSTFRSVSELPIMHQDWLNGKEFKCRVDSAAFPAPIERTISKTKGRPKAPQVYTIPPPKEQMAKDKVSLTCMITDFFPEDITVEWQWNGQPAENYKNTQPIMDTDGSYFVYSKLNVQKSNWEAGNTFTCSVLHEGLHNHHTEKSLSHSPGK
light: not shown
notes: copies: 2 + 2
On to B6, for which, in assay [1], the “relative mFcγRII-binding activity (template = 1)” value came to 1.42 fold. Besides, the “relative mFcγRIII-binding activity (template = 1)” value in assay [2] was 1.69 fold. For the same molecule, in assay [3], the “relative mFcγRII-binding activity (mIgG1 = 1)” value turned out to be 195 fold and the “relative mFcγRII-binding activity (template H237-MB515/MRAL-k0 = 1)” value is at least 1.4 fold. In addition, the “relative mFcγRIII-binding activity (mIgG1 = 1)” value in assay [4] was 2.2 fold.

B7: H237-MB539/MRAL-k0 (antibody, mouse IgG1, kappa)
heavy: QVQLQESGPGLVKPSETLSLTCAVSGHSISHDHAWSWVRQPPGEGLEWIGFISYSGITNYNPSLQGRVTISRDNSKNTLYLQMNSLRAEDTAVYYCARSLARTTAMDYWGEGTLVTVSSAKTTPPSVYPLAPGSAAQTNSMVTLGCLVKGYFPEPVTVTWNSGSLSSGVHTFPAVLQSDLYTLSSSVTVPSSTWPSETVTCNVAHPASSTKVDKKIVPRDCGCKPCICEPNEVEMVFIFPPKPKDVLTITLTPKVTCVVVDISKDDPEVQFSWFVDDVEVHTAQTQPREEQFNLTFRSVSELPIMHQDWLNGKEFKCRVDSAAFPAPIEKTISKTKGRPKAPQVYTIPPPKEQMAKDKVSLTCMITDFFPEDITVEWQWNGQPAENYKNTQPIMDTDGSYFVYSKLNVQKSNWEAGNTFTCSVLHEGLHNHHTEKSLSHSPGK
light: not shown
notes: copies: 2 + 2
Take B7: the “relative mFcγRII-binding activity (template = 1)” value in assay [1] stood at 0.77 fold. In assay [2], the “relative mFcγRIII-binding activity (template = 1)” value was found to be 1.45 fold. Further, in assay [3], the “relative mFcγRII-binding activity (mIgG1 = 1)” value stood at 105 fold. In addition, in assay [4], the “relative mFcγRIII-binding activity (mIgG1 = 1)” value came out at 1.9 fold.
